Experimental data reported in the RNAGym collection of RNA variant scans (doi:10.7554/elife.80360).

B1: HDV Ribozyme (parent)
chain: GGCCGGCAUGGUCCCAGCCUCCUCGCUGGCGCCGGCUGGGCAACAUUCCGAGGGGACCGUCCCCUCGGUAAUGGCGAAUGGGACCCA

Variants of: B1
Test: self-cleavage, relative activity (ratio to wild type); higher = more cleavage; co-transcriptional

Variant	self-cleavage
GGCCGGCAUCGUCCCAGCCUCCUCGCUGGCGCCGGCUGGGCAACAUUCCGAGGGGACCGUCCCCUCGGUAAUGGCGAAUGGGACUCA [G10C C85U]	1.07
GGCCGGCAUCGUCCCAGCCUCCUCGCUGGCGCCGGCUGGGCAACAUUCCGAGGGGACCGUCCCCUCGGUAAUGGCGAAUGGGACACA [G10C C85A]	0.598
GGCCGGCAUCGUCCCAGCCUCCUCUCUGGCGCCGGCUGGGCAACAUUCCGAGGGGACCGUCCCCUCGGUAAUGGCGAAUGGGACCCA [G10C G25U]	0.0941
GGCCGGCAUAGUCCCAGCCUCCUCGCUGGCGCCGGCUGGGCAACAUUCCGAGGGGACCGACCCCUCGGUAAUGGCGAAUGGGACCCA [G10A U60A]	0.739
GGCCGGCAUCGUCCCAGCCUCCUCGCUGGCGCCGGCUGGGCAACAUUCCCAGGGGACCGUCCCCUCGGUAAUGGCGAAUGGGACCCA [G10C G50C]	0.923
GGCCGGCAUCGUCCCAGCCUCCUCGCUGGCGCCGGCUGGGCAAUAUUCCGAGGGGACCGUCCCCUCGGUAAUGGCGAAUGGGACCCA [G10C C44U]	0.582
GGCCGGCAUCGUCCCAGCCUCCUCGCUGGCGCCGGCUGGGCAACAUUCCGAGGGGACCGUCCCCUCGGUAAUGGCUAAUGGGACCCA [G10C G76U]	1.16
GGCCGGCAUCGUCCCAGCCUCCUCGCUGGCGCCGGCUGGGCAACAUUCCGAGGGGACCGUCCCCUCGGUAAUGGCCAAUGGGACCCA [G10C G76C]	0.861
GGCCGGCAUCGUCCCAGCCGCCUCGCUGGCGCCGGCUGGGCAACAUUCCGAGGGGACCGUCCCCUCGGUAAUGGCGAAUGGGACCCA [G10C U20G]	0.151
GGCCGGCAUCGUCCCAGCCCCCUCGCUGGCGCCGGCUGGGCAACAUUCCGAGGGGACCGUCCCCUCGGUAAUGGCGAAUGGGACCCA [G10C U20C]	0.0739
GGCCGGCAUCGUCCCGGCCUCCUCGCUGGCGCCGGCUGGGCAACAUUCCGAGGGGACCGUCCCCUCGGUAAUGGCGAAUGGGACCCA [G10C A16G]	0.453
GGCCGGCAUCGUCCCAGCCUCCUCGCUGGCGCCGGCUGGGCAACCUUCCGAGGGGACCGUCCCCUCGGUAAUGGCGAAUGGGACCCA [G10C A45C]	0.231
GGCCGGCAUCGUCCCAGCCUCCUCGCUGGCGCCGGCUGGGCAACUUUCCGAGGGGACCGUCCCCUCGGUAAUGGCGAAUGGGACCCA [G10C A45U]	1.11
GGCCGGCAUAGUCCCAGCCCCCUCGCUGGCGCCGGCUGGGCAACAUUCCGAGGGGACCGUCCCCUCGGUAAUGGCGAAUGGGACCCA [G10A U20C]	0.0234
GGCCGGCAUCGUCCCAGCCUCCUCGCUGGCGCCGGCUGGGCUACAUUCCGAGGGGACCGUCCCCUCGGUAAUGGCGAAUGGGACCCA [G10C A42U]	0.289
GGCCGGCAUCGUCCCAGCCUCCUCGCUGGCGCCGGCUGGGCGACAUUCCGAGGGGACCGUCCCCUCGGUAAUGGCGAAUGGGACCCA [G10C A42G]	0.151

Variant	self-cleavage
GGCCGGCAUCGUCCCAGCCUCCUCGCUGGCGCCAGCUGGGCAACAUUCCGAGGGGACCGUCCCCUCGGUAAUGGCGAAUGGGACCCA [G10C G34A]	0.166
GGCCGGCAUCGUCCCAGCCUCCUCGCUGGCGCCUGCUGGGCAACAUUCCGAGGGGACCGUCCCCUCGGUAAUGGCGAAUGGGACCCA [G10C G34U]	0.175
GGCCGGCAUCGUCUCAGCCUCCUCGCUGGCGCCGGCUGGGCAACAUUCCGAGGGGACCGUCCCCUCGGUAAUGGCGAAUGGGACCCA [G10C C14U]	1.11
GGCCGGCAUCGUCCCAGCCUCCUCGCUGGCGCCGGCUGGGCAACAUUCCGAGGGGACAGUCCCCUCGGUAAUGGCGAAUGGGACCCA [G10C C58A]	0.886
GGCCGGCAUCGUCCCAACCUCCUCGCUGGCGCCGGCUGGGCAACAUUCCGAGGGGACCGUCCCCUCGGUAAUGGCGAAUGGGACCCA [G10C G17A]	0.804
GGCCGGCAUCGUCCCACCCUCCUCGCUGGCGCCGGCUGGGCAACAUUCCGAGGGGACCGUCCCCUCGGUAAUGGCGAAUGGGACCCA [G10C G17C]	0.208
GGCCGGCAUCGUCCCAGCCUCCUCGCUGGCGCCGGCUGGGCAACAUUCCGAGGGGACCGUCCCCUCGGUCAUGGCGAAUGGGACCCA [G10C A70C]	0.923
GGCCGGCAUCGUCCCAGCCUCCUCGCUGGCGCCGGCUGGGCAACAUUCCGAGGUGACCGUCCCCUCGGUAAUGGCGAAUGGGACCCA [G10C G54U]	0.897
GGCCGGCAUCGUCCCAGCCUCCUCGCUGGCGCCGGCUGGGCAACAUUCCGAGGGGACCGUCCCCUCCGUAAUGGCGAAUGGGACCCA [G10C G67C]	1.01
GGCCGGCAUCGUCCCAGCCUCCUCGCUGGCGCCGGCUGGGCAACAUUCCGAGGGGACCGUCCCCUCAGUAAUGGCGAAUGGGACCCA [G10C G67A]	0.712
GGCCGGCAUCGUCCCAGCCUCCUCGCUGGCGCCGGCUGGGCAACAUUCCGAGGGGACCGUCCCCUCGGUAAUGGCGGAUGGGACCCA [G10C A77G]	0.458
GGCCGGCAUCGUCCCAGCCUCCCCGCUGGCGCCGGCUGGGCAACAUUCCGAGGGGACCGUCCCCUCGGUAAUGGCGAAUGGGACCCA [G10C U23C]	0.95
GGCCGGCAUCGUCCCAGCCUCCUCGCUGGCGCCGGCUGGGCAACAUUCGGAGGGGACCGUCCCCUCGGUAAUGGCGAAUGGGACCCA [G10C C49G]	0.453
GGCCGGCAUCGUCCCAGCCUCCUCGCUGGCGGCGGCUGGGCAACAUUCCGAGGGGACCGUCCCCUCGGUAAUGGCGAAUGGGACCCA [G10C C32G]	0.0773
GGCCGGCAUCGUCCCAGCCUCCUCGCUGGCGCCGGCUGGGCAACAUUCCGAGGGGGCCGUCCCCUCGGUAAUGGCGAAUGGGACCCA [G10C A56G]	0.532
GGCCGGCAUCGUCCCAGCCUCCUCGCUGGCGCCGGCUGGGCAACAUUCCGAGGGGUCCGUCCCCUCGGUAAUGGCGAAUGGGACCCA [G10C A56U]	0.957
